In patent US10337022B2, “Methods of increasing root biomass in plants” (Agresearch Limited, priority 2014, dated 2019):

T1: BZR1 (Arabidopsis thaliana, UniProt Q8S307)
T1 construct: expressed in transfected cells; host or cells: Nicotiana benthamiana leaves (Agrobacterium infiltration)
T1 sequence (Q8S307 1-336): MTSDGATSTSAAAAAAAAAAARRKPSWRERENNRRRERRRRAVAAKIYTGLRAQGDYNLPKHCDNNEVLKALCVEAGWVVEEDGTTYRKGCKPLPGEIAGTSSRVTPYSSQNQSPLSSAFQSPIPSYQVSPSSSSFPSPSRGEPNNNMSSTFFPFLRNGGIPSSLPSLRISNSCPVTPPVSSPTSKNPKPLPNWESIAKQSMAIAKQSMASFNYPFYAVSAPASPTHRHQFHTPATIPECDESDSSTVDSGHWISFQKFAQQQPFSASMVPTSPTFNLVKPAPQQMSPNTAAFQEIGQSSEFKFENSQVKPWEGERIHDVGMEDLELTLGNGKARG

B1: P. sitchensis PPD: Picea sitchensis PEAPOD protein, SEQ ID NO: 5 (protein, listed as Picea sitchensis)
chain: MRGGERAPGSRPSLDKPLEELTEEDIFQLTREDCRRYLKEKGMRRPSWNKSQAIQQVLSLKSLFESKPNQQSKKPSKHKPATLQFETARDSTFAQSSVSQEQSLGFSWSKEVLDKGTAERQRLCSDSQEAHEIPRLGSKPPQSNTEGKRCAHDGHGRKSAQPLVRLPANFKNDCSNRQSSHTSESQPDTLLRSDSFQQPTAQLTIFYAGMVNVYDDVPLDKA
B2: A. trichopoda PPD: Amborella trichopoda PEAPOD protein, SEQ ID NO: 12 (protein, listed as Amborella trichopoda)
chain: MTAGDGSIRSILDKPLEELTEEDISQLTREDCRRYLKEKGMRRPSWNKYQAIQQVLSLKGLLEGKPCDDNSDVFSHRSPITVIPNVGSMREKEKAVNIADPEISGSHQPNFRREIHETTRERALPASDWPPSQEPVSQMTIFYAGAVNVYNDIPEDKVQAIIYLAGKSDSLQQTNVIRTGPDQCIASAASPSLNDLHSRRIHPTSNITTSQSLRVATSLPVGPHSEVPKTRKTSVQRFLEKRKDRGRLKGTLASGGSSKRGSSCLELYATSRLKSEGVATTTTQSNMNNVVVSPSNPRMPLNPGSCSWVEN
B3: P. abies PPD: Picea abies PEAPOD protein, SEQ ID NO: 4 (protein)
chain: MRGGGGADRLPARANLEKPLEDLSHEDIMQLTREDCRRYLIEKGMRRPSWNKSQAIQQVLSLKKLFESGPNDEKRSAATNRPNPDENLKEAASVSLLYGSQPESPSVVFASKDSDTFNLEWLAKTELPVLASQPRHIAQQNVFLSSLSAQQSGAQLTIFYSGNVNVYDDVPAEKAQEIMLLAGSGNYPPSSTCQSTRNTQQNAVRAAYPSNPTNTPFIHGVGPPLATVASSSVMSSPIHKESPITRKASLQRFLEKRKDRSRGKLGAPTISKKPLLMGMFMHPSIVHRQYWTDTAKRKSGKPDIPASISPTRPPHTPRRTSSDEQLSARHARGDISAQGGSLHNSN
modifications: Picea abies
B4: T. repens PPD: Trifolium repens PEAPOD protein, SEQ ID NO: 11 (protein, listed as Trifolium repens)
chain: MNGGSTVSFRSILDKPLNQLTEDDISQLTREDCRRFLKDKGMRRPSWNKSQAIQQVISLKALLEPTDDDLPAPVGVSSAIHHHHHHHPQPPQRNLNEAPVKGSDLDDTGFHTAEDLNKSTSTAVEIPTETNDANVVKSSGGCVASGSFGQMTIFYCGKVNVYDGVSPDKARSIMQLAACPSSFPQDNLLNKNAAVWASPCNIPIDKDVLFPNDTAILQVAQTDKMVEYPLQYREKGSIARDADVEGQASRNASLQRYREKRKDRGRSKGNKLTGITSSNFEMYLNLPVKLHASNGNSSRSSTDSPPQPRLPLVSGGSAENQPKVTLPIDLNDKDVQEC

Key:
[1] = tested on: Wild-type (Col-0), Δppd mutant and transgenic PPD-OX seedlings; assay: Hypocotyl length response to exogenous GA or PAC; assay type: in vivo, Arabidopsis
Text: Giberellic acid (GA) treatment is known to reduce levels of the DELLA proteins (including RGA1) which are GA repressors; to determine the relationship between PPD, DELLA and the GA signalling pathway the applicants performed a yeast two-hybrid (Y2H) analysis between PPD and DELLA (RGA1) and applied gibberellic acid (GA) hormone and GA biosynthesis inhibitor (paclobutrazol, PAC) to wild type, Δppd mutant, and the Δppd mutant PPD over expressor (PPD-OX).
For exogenous applications of GA or PAC seeds were surface sterilised with 70% ethanol, 0.01% Triton X-100 for 10 min, followed by 100% ethanol for 5 min, air dried on sterile filter paper, and transferred to media plates containing half-strength MS salts, 1% sucrose and 0.8% agar. Plates were incubated for 5 days at 4° C. in the dark then transferred to 24° C. with a 14 h light/10 h dark daily cycle. Light was provided by fluorescent tubes (Philips TLD 58W/865) at an intensity of 100 μM m^−2 s^−1. Wild-type (Col-0) Δppd mutant and transgenic PPD-OX seedlings were grown for five days on medium with different concentrations of GA (FIG. 10A) or PAC (FIG. 10B). GA (ACROS organics), and PAC (Sigma-Aldrich) were dissolved in ethanol and acetone respectively, filter sterilised and incorporated into media plates. Ethanol or acetone (0.5%) was used for mock treatments. Seedlings were grown at 24° C. under a 14 h light/10 h dark daily cycle for 5 days before hypocotyl lengths were analysed (n=35). Each treatment was repeated twice; error bars=standard error of the mean.

BZR1 = molecular target: T1, BZR1; assay: BiFC interaction with BZR1 in Nicotiana benthamiana leaves; assay type: cell-based; details: fully expanded leaves, co-expressed with cYFP-BZR1
Text: The binary BiFC-Gateway YFP vectors pDEST-VYNE(R)^GW (Venus aa 1-173) and pDEST-VYCE(R)^GW (Venus aa 156-239) with N-terminal fusions, were used to construct the following vectors; pDESTnYFP-BZR1, pDESTnYFP-NINJA, pDESTnYFP-PPD1, pDESTcYFP-BZR1, pDESTcYFP-PPD1, pDESTcYFP-PPD1Δppd, pDESTcYFP-PPD1Δtify and pDESTcYFP-PPD1Δjas*. […] Plasmids for co-immunoprecipitation: A synthesised DNA construct encoding PPD1 with a 3×c-myc C-terminal fusion was sub-cloned into pRSh1 to produce pRSh1-PPD1-3×c-myc, while the NINJA cDNA sequence was sub-cloned into pB7FWG2,0 (Karimi et al 2002, Trends Plant Sci. 7, 193-195) to construct pB7FWG2-NINJA-GFP.
For infiltration Agrobacterium tumefaciens GV3101 strains containing the binary vectors were re-suspended from plates and prepared for transformation as described for the LUC assay. All YFP and expression strains were mixed in ratios of 1:1 (vol/vol) with the addition of strain P19 at 1/10th volume. Five leaf discs were sampled from each infiltrated leaf after 40 h. Two hours prior to sampling for microscopic fluorescence observations leaves were infiltrated with a 1 μg/ml DAPI solution to stain nuclei. YFP fluorescence and DAPI staining was detected using an Olympus Fluoview FV10i confocal laser scanning microscope. Each experiment was repeated twice.

ryegrass plants = assay: Root biomass analysis of ryegrass transformants; assay type: in vivo; details: approximately 6 weeks in glasshouse
Method: (§1) An equal number (typically 4-10) of tillers were taken from WT and ryegrass plants transformed with Arabidopsis PPD under a constitutive promoter. Tillers were planted into plastic grow bags containing potting mix and pruned to be of equal height. […] The increase in root biomass was quantified by washing the roots under running water then removing the attached above ground portion (leaves and stems) and drying the roots at 65° C. for 48 hr then weighing the dry weights (Table 2).
as §1, with “one of three root promoters.” for “a constitutive promoter.”, “3 and Table 4)” for “2).”

[2] = tested on: PEAPOD deletion mutant Δppd Arabidopsis thaliana ecotype Landsberg erecta; assay: Complementation of the Arabidopsis Δppd mutant leaf phenotype; assay type: in vivo; details: optimized PEAPOD coding sequence under CaMV35s promoter, seedlings (FIG. 13)
Text: The functionality of any PEAPOD sequence can be confirmed by complementation of the Arabidopsis Δppd mutant leaf phenotype. Complementation of the Arabidopsis Δppd mutant leaf phenotype was first used to identify the Arabidopsis PPD gene (White 2006). This was seen by a restoration of the wild type flattened leaf phenotype and normal rosette shape as opposed to the domed leaf and the twisting of the rosette to a “propeller” phenotype.
Constructs above can be transformed into Arabidopsis by the floral dip infiltration method (Clough and Bent, 1998 Plant J 16, 735-43). The Δppd line is transformed to express the PPD polypeptides by standard techniques. Transgenic plants are confirmed by standard PCR analysis techniques with a combination of transgene-specific and T-DNA primers.
Complementation of the Δppd line to produce a wild-type leaf and rosette phenotype in T1 seedlings (the off-spring of the infiltrated plant) confirms PEAPOD functionality of the introduced gene, which can be shown in photographs.

Δppd Arabidopsis plants = assay: Root biomass analysis of Arabidopsis transformants; assay type: in vivo; details: constitutive promoter, approximately 6 weeks in growth cabinet
Method: Seeds from WT and Δppd Arabidopsis plants transformed with T. repens PPD under a constitutive promoter were scarified and sown into potting mix. […] The increase in root biomass was quantified by washing the roots under running water then the attached above ground portion (leaves and stems) was removed and the roots dried at 65° C. for 48 hr then weighed.

Molecule | root growth beyond the grow bag compared to WT plants (ryegrass plants; constitutive promoter) | root growth beyond the grow bag compared to WT plants (ryegrass plants; one of three root promoters) | PEAPOD functionality by complementation of Δppd mutant [2] | root growth beyond the pot compared to WT plants (Δppd Arabidopsis plants) | other results
CC(C)(C)[C@@H](O)[C@@H](Cc1ccc(Cl)cc1)n1cncn1 (racemic) [PAC, paclobutrazol] | – | – | – | – | hypocotyl length ([1]; PPD-OX seedlings, PAC beyond 0.1 μM): decrease in hypocotyl length; hypocotyl length ([1]; PPD-OX seedlings, PAC up to 0.1 μM): relatively insensitive; hypocotyl elongation ([1]; wild type seedlings, 0 to 10 μM PAC): dose dependent decrease of hypocotyl elongation; hypocotyl elongation ([1]; Δppd seedlings, 0 to 10 μM PAC, compared with wild type): larger reduction in hypocotyl elongation
C=C1C[C@]23C[C@@]1(O)CC[C@H]2[C@@]12C=C[C@H](O)[C@@](C)(C(=O)O1)[C@H]2[C@@H]3C(=O)O [GA, gibberellic acid] | – | – | – | – | hypocotyl elongation ([1]; PPD-OX seedlings, 1 μM GA, 5 days): increased hypocotyl elongation; hypocotyl elongation ([1]; PPD-OX seedlings, up to 10 μM GA): hypersensitive elongation; hypocotyl elongation ([1]; WT seedlings, 5-50 μM GA, 5 days): elongation of the WT hypocotyl occurred in a dose dependent manner; hypocotyl elongation ([1]; wild type (WT) seedlings, 1 μM GA, 5 days): did not promote elongation; hypocotyl elongation ([1]; Δppd seedlings, 1 μM GA, 5 days): increased hypocotyl elongation; hypocotyl elongation ([1]; Δppd seedlings, up to 5 μM GA): hypersensitive elongation
nYFP-PPD1: PPD1 with N-terminal fusion of Venus aa 1-173 for BiFC | – | – | – | – | BiFC interaction with BZR1 (BZR1): no interaction was observed
B1 | increase in root biomass/growth/length/branching | increase in root biomass/growth/length/branching | functionally equivalent | – | –
B2 | increase in root biomass/growth/length/branching | increase in root biomass/growth/length/branching | functionally equivalent | increase in root biomass/growth/length/branching | –
B3 | – | – | – | increase in root biomass/growth/length/branching | –
B4 | increase in root biomass/growth/length/branching | increase in root biomass/growth/length/branching | functionally equivalent | increase in root biomass/growth/length/branching | –
